Results on 3 substances are retold here after US20130136691A1, “GASTRIN […] PEPTIDE COMPOUNDS” (priority 2008, published 2013).

pEC50, pIC50, pKd: −log10 of the molar value.

The target in test [1] is gastrin releasing peptide receptor (GRP-R) (human) (UniProt P30550). The test is described as follows: competition with 125I-universal ligand, receptor autoradiography on human tumour tissue.
Test [2] addresses human neuromedin-B preferring receptor (NMB-R) (human) (UniProt P28336). Described as above.
Test [3] has as its target gastrin releasing peptide receptor (GRP-R) (human) (UniProt P30550). The test is described as follows: competition with 67Ga-AMBA, PC-3 cells.
For test [4] the target is unchanged. The test is described as follows: competition with 177Lu-AMBA, PC-3 cells.
Test [5] shares this target. Nature of the test: saturation binding, PC-3 cells, calculated from Bmax.
For test [6] the target is unchanged. The test is described as follows: saturation binding of carrier-added radioligand, PC-3 cells, 4 C.

gastrin releasing peptide receptor (GRP-R) (human), sequence (P30550 whole entry): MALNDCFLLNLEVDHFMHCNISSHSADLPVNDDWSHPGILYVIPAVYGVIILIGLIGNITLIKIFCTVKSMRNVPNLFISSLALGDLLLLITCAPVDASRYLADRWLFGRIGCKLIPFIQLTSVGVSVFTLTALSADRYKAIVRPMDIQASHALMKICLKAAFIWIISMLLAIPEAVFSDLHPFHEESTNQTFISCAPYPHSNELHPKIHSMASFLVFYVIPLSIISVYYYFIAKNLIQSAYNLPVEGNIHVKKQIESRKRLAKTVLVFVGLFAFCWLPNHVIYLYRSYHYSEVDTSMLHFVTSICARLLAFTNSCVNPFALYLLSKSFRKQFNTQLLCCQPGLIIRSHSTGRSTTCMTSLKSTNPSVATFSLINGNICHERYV
human neuromedin-B preferring receptor (NMB-R) (human), sequence (P28336 whole entry): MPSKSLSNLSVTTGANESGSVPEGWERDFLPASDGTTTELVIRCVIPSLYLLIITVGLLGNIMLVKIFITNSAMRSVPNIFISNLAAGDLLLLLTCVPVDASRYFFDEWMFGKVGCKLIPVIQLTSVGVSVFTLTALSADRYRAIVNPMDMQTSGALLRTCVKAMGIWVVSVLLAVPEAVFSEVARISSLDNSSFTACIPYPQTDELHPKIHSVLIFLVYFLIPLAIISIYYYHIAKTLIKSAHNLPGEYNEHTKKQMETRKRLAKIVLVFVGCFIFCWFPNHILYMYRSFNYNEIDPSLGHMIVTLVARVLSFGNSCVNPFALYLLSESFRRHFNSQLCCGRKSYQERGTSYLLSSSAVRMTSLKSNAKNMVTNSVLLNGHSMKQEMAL

On to “Universal ligand ([DTyr^6, βAla^11, Phe^13, Nle^14]-BBN(6-14)) (peptide)”, for which the values for the pIC50 in test [1] and in test [2] were 9.15 and 9.10, respectively.

As to “Ga-AMBA (non-radioactive gallium complex of AMBA) (peptide)”, the values for the pEC50 in test [3] and in test [4] were 9.00 and 8.94, respectively.

With ^67Ga-AMBA (peptide), the Receptors/cell (receptors/cell) in test [5] is 242000. In addition, in test [6], the Binding capacity (Bmax) (fmoles/1 × 10^6 cells) was found to be 402 and the negative logarithm of the Kd (pKd) was 9.34.

As a reminder, the pIC50 is the IC50 on a negative log10 scale, so that one unit is a factor of ten. As a reminder, the pEC50 is −log10 of the EC50, conventionally taken in molar units. Low values mean a high EC50, high ones a low EC50. The term pKd denotes the Kd on a negative log10 scale, so that one unit is a factor of ten.
